Source: publication PMC6088750

Substrate: O=S(O)(O)=S
Assay: thiosulfate sulfurtransferase initial rates, Michaelis-Menten fit
Type: biochemical, Enterococcus faecalis
Details: RHD domain activity; minimal TST activity

B1: Ef CDR-RHD / CoA persulfide reductase (CoAPR) (Enterococcus faecalis OG1RF) (protein)
chain: MKIVIIGGVAGGMSAATRLRRLMEDAEIVVMEKGPFVSFANCGLPYYVSGEIAEREQLLVQTPEALKARFNLDVRPHHEVVAIDPIEKVITVKHETEILTEHYDKLILSPGAKPFVPPITGLAEAKNVFSLRNVPDLDQIMTALTPETKRAVVIGAGFIGLEMAENLQKRGLEVTLVEKAPHVLPPLDEEMAAFVKAELSKNNVQVITGQSAVAFEEEGQVIRLEDGQTLASDLTILSVGVQPENTLAVEAGVATGLRGGIVVDEHYQTNQPDIYAVGDAIVVKQQITQEDALISLASPANRQGRQVADVIAGLERKNQGSIGTAIVRVFDLTAASTGLSERAAKAAGLTTAVVHISGKDHAGYYPGATDLQLKLVFHPTTGEIYGAQGIGAKGVDKRIDILATAIKGQLTIFDLPELEFTYAPPFGSAKDPVNMLGYAAMNLVEGLSENVQWYELSNELAKGAVLLDVRNPAERANGQFKNAVSIPLNELRERLEELDKSTEYIVSCHSGLRSYIAERMLKQAGISAKNLDGAFALYRMVKPEELENV
For B1, the Km was 1000 ± 600 µM.
